Measured values published in paper PMC3627646.
Values belong to the molecule of their own block, whether it stands above or below them.

Experiments:
[1] = target: Ankyrin2, large isoform (Ank2-L) (Drosophila (endogenous in larval brain))
[2] = target: Ank2-S–EGFP (short isoform of Ank2 containing all potential Nrg interacting domains) (Drosophila); assay: co-IP; S2 cells co-transfected with act5C–Gal4, UAS–Ank2-S–EGFP and UAS–Nrg–3xHA; IP of Nrg180-HA proteins using Ank2-S–GFP; blots with anti-HA and anti-GFP; four independent IPs quantified (Odyssey2.1)
[3] = target: Ankyrin2, large isoform (Ank2-L) (Drosophila (endogenous in larval brain)); remark: listed apart in the source

Molecule: Nrg180-HA Y-D (tyrosine of the FIGQY motif replaced with aspartate) (from UniProt P20241-1 24-1302) (natural protein)
- FRAP of GFP-tagged Nrg180^Y-D in motoneurons in vivo (ok371–Gal4): mobility against wild type (fold against wild type) [1]: > 1.5
- decrease in binding capacities compared to wild-type [2]: 70%

Molecule: Nrg180-HA ΔFIGQY (entire FIGQY motif deleted) (from UniProt P20241-1 24-1302) (natural protein)
- FRAP of GFP-tagged Nrg180^ΔFIGQY in motoneurons in vivo (ok371–Gal4): mobile fraction [3]: 80%

B1: Nrg180-HA, wild type (UAS–Nrg–3xHA) (natural protein)
chain: KGNRPPRITKQPAPGELLFKVAQQNKESDNPFIIECEADGQPEPEYSWIKNGKKFDWQAYDNRMLRQPGRGTLVITIPKDEDRGHYQCFASNEFGTATSNSVYVRKAELNAFKDEAAKTLEAVEGEPFMLKCAAPDGFPSPTVNWMIQESIDGSIKSINNSRMTLDPEGNLWFSNVTREDASSDFYYACSATSVFRSEYKIGNKVLLDVKQMGVSASQNKHPPVRQYVSRRQSLALRGKRMELFCIYGGTPLPQTVWSKDGQRIQWSDRITQGHYGKSLVIRQTNFDDAGTYTCDVSNGVGNAQSFSIILNVNSVPYFTKEPEIATAAEDEEVVFECRAAGVPEPKISWIHNGKPIEQSTPNPRRTVTDNTIRIINLVKGDTGNYGCNATNSLGYVYKDVYLNVQAEPPTISEAPAAVSTVDGRNVTIKCRVNGSPKPLVKWLRASNWLTGGRYNVQANGDLEIQDVTFSDAGKYTCYAQNKFGEIQADGSLVVKEHTRITQEPQNYEVAAGQSATFRCNEAHDDTLEIEIDWWKDGQSIDFEAQPRFVKTNDNSLTIAKTMELDSGEYTCVARTRLDEATARANLIVQDVPNAPKLTGITCQADKAEIHWEQQGDNRSPILHYTIQFNTSFTPASWDAAYEKVPNTDSSFVVQMSPWANYTFRVIAFNKIGASPPSAHSDSCTTQPDVPFKNPDNVVGQGTEPNNLVISWTPMPEIEHNAPNFHYYVSWKRDIPAAAWENNNIFDWRQNNIVIADQPTFVKYLIKVVAINDRGESNVAAEEVVGYSGEDRPLDAPTNFTMRQITSSTSGYMAWTPVSEESVRGHFKGYKIQTWTENEGEEGLREIHVKGDTHNALVTQFKPDSKNYARILAYNGRFNGPPSAVIDFDTPEGVPSPVQGLDAYPLGSSAFMLHWKKPLYPNGKLTGYKIYYEEVKESYVGERREYDPHITDPRVTRMKMAGLKPNSKYRISITATTKMGEGSEHYIEKTTLKDAVNVAPATPSFSWEQLPSDNGLAKFRINWLPSTEGHPGTHFFTMHRIKGETQWIRENEEKNSDYQEVGGLDPETAYEFRVVSVDGHFNTESATQEIDTNTVEGPIMVANETVANAGWFIGMMLALAFIIILFIIICIIRRNRGGKYDVHDRELANGRRDYPEEGGFHEYSQPLDNKSAGRQSVSSANKPGVESDTDSMAEYGDGDTGQFTEDGSFIGQYVPGKLQPPVSPQPLNNSAAAHQAAPTAGGSGAAGSAAAAGASGGASSAGGAAASNGGAAAGAVATYV
- FRAP of GFP-tagged Nrg180 in motoneurons in vivo (ok371–Gal4): mobile fraction (% of total protein) [3]: 40

Continued, values first:

- FRAP of GFP-tagged Nrg180^Y-F in motoneurons in vivo (ok371–Gal4): mobility against wild type (fold against wild type) [1]: > 1.5
- decrease in binding capacities compared to wild-type [2]: 30%
Molecule: Nrg180-HA Y-F (tyrosine of the FIGQY motif replaced with phenylalanine) (from UniProt P20241-1 24-1302) (natural protein)

- FRAP of GFP-tagged Nrg180^Y-A in motoneurons in vivo (ok371–Gal4): mobility against wild type (fold against wild type) [1]: > 1.5
- decrease in binding capacities compared to wild-type [2]: 90%
Molecule: Nrg180-HA Y-A (tyrosine of the FIGQY motif replaced with alanine) (from UniProt P20241-1 24-1302) (natural protein)
